*1 amine or outer side, *2 acyl side, *3 side chain or, on linkers, in order; H or OH if unused. The star is where a group is joined. C18 diacid = O=C(O)CCCCCCCCCCCCCCCCC(=O)*; γGlu = O=C(O)[C@H](CCC(=O)[*:2])N[*:1]
T1: human amylin-3(a) receptor (human, UniProt P30988 25-474; O60896 24-148)
T1 sequence (looked up) 1: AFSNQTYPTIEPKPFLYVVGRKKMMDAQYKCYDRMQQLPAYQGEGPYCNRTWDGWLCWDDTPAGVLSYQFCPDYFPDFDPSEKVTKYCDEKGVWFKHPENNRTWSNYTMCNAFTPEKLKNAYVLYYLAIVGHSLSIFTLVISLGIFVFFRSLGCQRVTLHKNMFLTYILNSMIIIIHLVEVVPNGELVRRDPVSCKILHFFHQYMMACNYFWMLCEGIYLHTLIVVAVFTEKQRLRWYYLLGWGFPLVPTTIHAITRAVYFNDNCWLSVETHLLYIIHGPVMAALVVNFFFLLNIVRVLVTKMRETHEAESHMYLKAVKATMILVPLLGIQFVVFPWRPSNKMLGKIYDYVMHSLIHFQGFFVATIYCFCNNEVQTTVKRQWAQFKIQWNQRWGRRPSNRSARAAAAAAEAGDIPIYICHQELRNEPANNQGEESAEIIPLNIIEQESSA
T1 sequence (looked up) 2: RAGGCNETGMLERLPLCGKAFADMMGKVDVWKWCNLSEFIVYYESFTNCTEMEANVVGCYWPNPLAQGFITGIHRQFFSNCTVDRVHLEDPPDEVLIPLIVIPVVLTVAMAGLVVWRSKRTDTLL

T2: human calcitonin receptor (a) (human, UniProt P30988 25-474)
T2 sequence (looked up): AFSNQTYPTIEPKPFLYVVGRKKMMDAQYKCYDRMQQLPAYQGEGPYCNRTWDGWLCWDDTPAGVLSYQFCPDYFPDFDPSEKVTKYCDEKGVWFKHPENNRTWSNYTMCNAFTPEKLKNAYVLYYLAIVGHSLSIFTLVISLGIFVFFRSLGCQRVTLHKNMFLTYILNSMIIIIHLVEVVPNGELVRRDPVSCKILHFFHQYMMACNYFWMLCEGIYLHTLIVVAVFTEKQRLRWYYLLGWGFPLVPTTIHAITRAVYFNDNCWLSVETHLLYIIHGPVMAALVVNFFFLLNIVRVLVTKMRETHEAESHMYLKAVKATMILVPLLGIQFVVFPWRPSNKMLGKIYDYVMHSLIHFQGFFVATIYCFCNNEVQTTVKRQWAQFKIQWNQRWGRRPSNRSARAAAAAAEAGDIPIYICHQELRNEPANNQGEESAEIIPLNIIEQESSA


Key:
[1] = target: T1, human amylin-3(a) receptor; test: cell-based or functional assay
[2] = target: T2, human calcitonin receptor (a); test: cell-based or functional assay

| hAmyR3 potency, EC50 (pM); CRE-luciferase reporter in BHK cells [1] [pM] | hCalcR potency, EC50 (pM); CRE-luciferase reporter in BHK cells [2] [pM] | Binder |
| --- | --- | --- |
| 1.62 | 1.58 | {C18 diacid-γGlu}-ASALSTAQTARLAEFLHHSSDNFGPILPPTDVGSNTP-NH2 (SMILES CC[C@H](C)[C@H](NC(=O)[C@@H]1CCCN1C(=O)CNC(=O)[C@H](Cc1ccccc1)NC(=O)[C@H](CC(N)=O)NC(=O)[C@H](CC(=O)O)NC(=O)[C@H](CO)NC(=O)[C@H](CO)NC(=O)[C@H](Cc1c[nH]cn1)NC(=O)[C@H](Cc1c[nH]cn1)NC(=O)[C@H](CC(C)C)NC(=O)[C@H](Cc1ccccc1)NC(=O)[C@H](CCC(=O)O)NC(=O)[C@H](C)NC(=O)[C@H](CC(C)C)NC(=O)[C@H](CCCNC(=N)N)NC(=O)[C@H](C)NC(=O)[C@@H](NC(=O)[C@H](CCC(N)=O)NC(=O)[C@H](C)NC(=O)[C@@H](NC(=O)[C@H](CO)NC(=O)[C@H](CC(C)C)NC(=O)[C@H](C)NC(=O)[C@H](CO)NC(=O)[C@H](C)NC(=O)CC[C@H](NC(=O)CCCCCCCCCCCCCCCCC(=O)O)C(=O)O)[C@@H](C)O)[C@@H](C)O)C(=O)N[C@@H](CC(C)C)C(=O)N1CCC[C@H]1C(=O)N1CCC[C@H]1C(=O)N[C@H](C(=O)N[C@@H](CC(=O)O)C(=O)N[C@H](C(=O)NCC(=O)N[C@@H](CO)C(=O)N[C@@H](CC(N)=O)C(=O)N[C@H](C(=O)N1CCC[C@H]1C(N)=O)[C@@H](C)O)C(C)C)[C@@H](C)O) |
| 1.31 | 2.19 | {C18 diacid-γGlu}-ASHLSTAQTQRLAEFLHHSSDPFGAIPSSTDVGPNTP-NH2 (SMILES CC[C@H](C)[C@H](NC(=O)[C@H](C)NC(=O)CNC(=O)[C@H](Cc1ccccc1)NC(=O)[C@@H]1CCCN1C(=O)[C@H](CC(=O)O)NC(=O)[C@H](CO)NC(=O)[C@H](CO)NC(=O)[C@H](Cc1c[nH]cn1)NC(=O)[C@H](Cc1c[nH]cn1)NC(=O)[C@H](CC(C)C)NC(=O)[C@H](Cc1ccccc1)NC(=O)[C@H](CCC(=O)O)NC(=O)[C@H](C)NC(=O)[C@H](CC(C)C)NC(=O)[C@H](CCCNC(=N)N)NC(=O)[C@H](CCC(N)=O)NC(=O)[C@@H](NC(=O)[C@H](CCC(N)=O)NC(=O)[C@H](C)NC(=O)[C@@H](NC(=O)[C@H](CO)NC(=O)[C@H](CC(C)C)NC(=O)[C@H](Cc1c[nH]cn1)NC(=O)[C@H](CO)NC(=O)[C@H](C)NC(=O)CC[C@H](NC(=O)CCCCCCCCCCCCCCCCC(=O)O)C(=O)O)[C@@H](C)O)[C@@H](C)O)C(=O)N1CCC[C@H]1C(=O)N[C@@H](CO)C(=O)N[C@@H](CO)C(=O)N[C@H](C(=O)N[C@@H](CC(=O)O)C(=O)N[C@H](C(=O)NCC(=O)N1CCC[C@H]1C(=O)N[C@@H](CC(N)=O)C(=O)N[C@H](C(=O)N1CCC[C@H]1C(N)=O)[C@@H](C)O)C(C)C)[C@@H](C)O) |
| 1.22 | 1.86 | {C18 diacid-γGlu}-ASQLSTAQTARLAEFLHHSSDNFGPILPPTDVGSNTP-NH2 (SMILES CC[C@H](C)[C@H](NC(=O)[C@@H]1CCCN1C(=O)CNC(=O)[C@H](Cc1ccccc1)NC(=O)[C@H](CC(N)=O)NC(=O)[C@H](CC(=O)O)NC(=O)[C@H](CO)NC(=O)[C@H](CO)NC(=O)[C@H](Cc1c[nH]cn1)NC(=O)[C@H](Cc1c[nH]cn1)NC(=O)[C@H](CC(C)C)NC(=O)[C@H](Cc1ccccc1)NC(=O)[C@H](CCC(=O)O)NC(=O)[C@H](C)NC(=O)[C@H](CC(C)C)NC(=O)[C@H](CCCNC(=N)N)NC(=O)[C@H](C)NC(=O)[C@@H](NC(=O)[C@H](CCC(N)=O)NC(=O)[C@H](C)NC(=O)[C@@H](NC(=O)[C@H](CO)NC(=O)[C@H](CC(C)C)NC(=O)[C@H](CCC(N)=O)NC(=O)[C@H](CO)NC(=O)[C@H](C)NC(=O)CC[C@H](NC(=O)CCCCCCCCCCCCCCCCC(=O)O)C(=O)O)[C@@H](C)O)[C@@H](C)O)C(=O)N[C@@H](CC(C)C)C(=O)N1CCC[C@H]1C(=O)N1CCC[C@H]1C(=O)N[C@H](C(=O)N[C@@H](CC(=O)O)C(=O)N[C@H](C(=O)NCC(=O)N[C@@H](CO)C(=O)N[C@@H](CC(N)=O)C(=O)N[C@H](C(=O)N1CCC[C@H]1C(N)=O)[C@@H](C)O)C(C)C)[C@@H](C)O) |
| 1.64 | 1.89 | {C18 diacid-γGlu}-ASHLSTAQTQRLAEFLHHSSDNFGPILPPTDVGSNTP-NH2 (SMILES CC[C@H](C)[C@H](NC(=O)[C@@H]1CCCN1C(=O)CNC(=O)[C@H](Cc1ccccc1)NC(=O)[C@H](CC(N)=O)NC(=O)[C@H](CC(=O)O)NC(=O)[C@H](CO)NC(=O)[C@H](CO)NC(=O)[C@H](Cc1c[nH]cn1)NC(=O)[C@H](Cc1c[nH]cn1)NC(=O)[C@H](CC(C)C)NC(=O)[C@H](Cc1ccccc1)NC(=O)[C@H](CCC(=O)O)NC(=O)[C@H](C)NC(=O)[C@H](CC(C)C)NC(=O)[C@H](CCCNC(=N)N)NC(=O)[C@H](CCC(N)=O)NC(=O)[C@@H](NC(=O)[C@H](CCC(N)=O)NC(=O)[C@H](C)NC(=O)[C@@H](NC(=O)[C@H](CO)NC(=O)[C@H](CC(C)C)NC(=O)[C@H](Cc1c[nH]cn1)NC(=O)[C@H](CO)NC(=O)[C@H](C)NC(=O)CC[C@H](NC(=O)CCCCCCCCCCCCCCCCC(=O)O)C(=O)O)[C@@H](C)O)[C@@H](C)O)C(=O)N[C@@H](CC(C)C)C(=O)N1CCC[C@H]1C(=O)N1CCC[C@H]1C(=O)N[C@H](C(=O)N[C@@H](CC(=O)O)C(=O)N[C@H](C(=O)NCC(=O)N[C@@H](CO)C(=O)N[C@@H](CC(N)=O)C(=O)N[C@H](C(=O)N1CCC[C@H]1C(N)=O)[C@@H](C)O)C(C)C)[C@@H](C)O) |
| 1.49 | 1.56 | {C18 diacid-γGlu}-ASQLSTAQTQRLAEFLHHSSDPFGAIPSSTDVGPDTP-NH2 (SMILES CC[C@H](C)[C@H](NC(=O)[C@H](C)NC(=O)CNC(=O)[C@H](Cc1ccccc1)NC(=O)[C@@H]1CCCN1C(=O)[C@H](CC(=O)O)NC(=O)[C@H](CO)NC(=O)[C@H](CO)NC(=O)[C@H](Cc1c[nH]cn1)NC(=O)[C@H](Cc1c[nH]cn1)NC(=O)[C@H](CC(C)C)NC(=O)[C@H](Cc1ccccc1)NC(=O)[C@H](CCC(=O)O)NC(=O)[C@H](C)NC(=O)[C@H](CC(C)C)NC(=O)[C@H](CCCNC(=N)N)NC(=O)[C@H](CCC(N)=O)NC(=O)[C@@H](NC(=O)[C@H](CCC(N)=O)NC(=O)[C@H](C)NC(=O)[C@@H](NC(=O)[C@H](CO)NC(=O)[C@H](CC(C)C)NC(=O)[C@H](CCC(N)=O)NC(=O)[C@H](CO)NC(=O)[C@H](C)NC(=O)CC[C@H](NC(=O)CCCCCCCCCCCCCCCCC(=O)O)C(=O)O)[C@@H](C)O)[C@@H](C)O)C(=O)N1CCC[C@H]1C(=O)N[C@@H](CO)C(=O)N[C@@H](CO)C(=O)N[C@H](C(=O)N[C@@H](CC(=O)O)C(=O)N[C@H](C(=O)NCC(=O)N1CCC[C@H]1C(=O)N[C@@H](CC(=O)O)C(=O)N[C@H](C(=O)N1CCC[C@H]1C(N)=O)[C@@H](C)O)C(C)C)[C@@H](C)O) |
| 1.27 | 1.5 | {C18 diacid-γGlu}-ASHLSTAQTARLAEFLHHSSDPFGAIPSSTDVGPDTP-NH2 (SMILES CC[C@H](C)[C@H](NC(=O)[C@H](C)NC(=O)CNC(=O)[C@H](Cc1ccccc1)NC(=O)[C@@H]1CCCN1C(=O)[C@H](CC(=O)O)NC(=O)[C@H](CO)NC(=O)[C@H](CO)NC(=O)[C@H](Cc1c[nH]cn1)NC(=O)[C@H](Cc1c[nH]cn1)NC(=O)[C@H](CC(C)C)NC(=O)[C@H](Cc1ccccc1)NC(=O)[C@H](CCC(=O)O)NC(=O)[C@H](C)NC(=O)[C@H](CC(C)C)NC(=O)[C@H](CCCNC(=N)N)NC(=O)[C@H](C)NC(=O)[C@@H](NC(=O)[C@H](CCC(N)=O)NC(=O)[C@H](C)NC(=O)[C@@H](NC(=O)[C@H](CO)NC(=O)[C@H](CC(C)C)NC(=O)[C@H](Cc1c[nH]cn1)NC(=O)[C@H](CO)NC(=O)[C@H](C)NC(=O)CC[C@H](NC(=O)CCCCCCCCCCCCCCCCC(=O)O)C(=O)O)[C@@H](C)O)[C@@H](C)O)C(=O)N1CCC[C@H]1C(=O)N[C@@H](CO)C(=O)N[C@@H](CO)C(=O)N[C@H](C(=O)N[C@@H](CC(=O)O)C(=O)N[C@H](C(=O)NCC(=O)N1CCC[C@H]1C(=O)N[C@@H](CC(=O)O)C(=O)N[C@H](C(=O)N1CCC[C@H]1C(N)=O)[C@@H](C)O)C(C)C)[C@@H](C)O) |
